The target in this test is T1, CD38 on Ramos cells (human, UniProt P28907 1-300).
T1 construct: whole, on cells; also called CD38 expressing cells; Ramos target cells
Kind of test: ADCC assay on Ramos cells (binding inferred from it). How it is done: The ability of anti-CD38 antibodies to bind to CD38 expressing cells and promote functional activity was determined using an antibody-dependent cell-mediated cytotoxicity (ADCC) assay. In this assay, Ramos cells, a Burkitt's lymphoma cell line, were added to wells at 5×10³ cells per well. Test antibodies (C38A2 (“38-A2”), C38D8 (“38-D8”) and C38D4 (“38-D4”) and control IgG) were then added at 1 microgram per ml and incubated with the Ramos cells for 20 minutes at 37° C. After washing, the effector cells were added at different concentrations resulting in three effector-to-target ratios. The effector cells were purified natural killer (NK) cells that had been incubated overnight in the presence of IL-2 (100 U/ml). The assay was allowed to proceed for at least 4 hours after which time cytotoxicity was evaluated using a Promega Cyto-glo kit.

B1: C38D8 (antibody, V domains shown)
VH: QVQLVESGGGVVQPGGSLRLSCAASGFIVSTNYVHWVRQAPGKGLEWVSGIYSDPYTSYAYSDSVKGRFTISRDMSKNTVYLQMNRLRAEDTAVYYCARETNTGFSNSWYLDFWGQGTLVTVSS
VL: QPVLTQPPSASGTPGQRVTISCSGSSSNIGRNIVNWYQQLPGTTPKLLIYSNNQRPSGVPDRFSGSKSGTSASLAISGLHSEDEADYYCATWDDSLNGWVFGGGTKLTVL
notes: tested as an antibody beside an IgG matched control in the ADCC assay
Consider B1, for which the binding result is “binds”.

B2: C38A2 (antibody, V domains shown)
VH: QVQLVESGGGLVKPGGSLRLSCAASGFTFSDDYMSWIRQAPGKGLEWVASVSNGRPTTYYADSVRGRFTISRDNAKNSLYLQMNSLRAEDTAVYYCAREDWGGEFTDWGRGTLVTVSS
VL: QAGLTQPPSASGTSGQRVTISCSGSSSNIGINFVYWYQHLPGTAPKLLIYKNNQRPSGVPDRFSGSKSGNSASLAISGLRSEDEADYYCAAWDDSLSGYVFGSGTKVTVL
notes: as for B1
As for B2, the binding result was “binds”.

The values are drawn from patent US20170291959A1 (SORRENTO THERAPEUTICS, published 2017).
